Publication PMC3855715, “Two high-resolution structures of the human E3 ubiquitin ligase Siah1” (Acta Crystallographica Section F, 2013)
Values belong to the binder of their own block, whether it stands above or below them.

Experiments:
[1] = biological target: the molecule itself; assay: SEC; size-exclusion chromatography during purification of Siah1 91-282; single species of approximate mass 39 kDa
[2] = biological target: T1, Siah1 (construct used for the complex with SIP, limits not stated) (human, UniProt Q8IUQ4 1-282); assay: SEC; size-exclusion gel chromatography of Siah1 with full-length SIP; complex purified; settings: both partners purified
T1 construct: Siah1 (seven-in-absentia homologue 1), human, UniProt Q8IUQ4
T1 sequence (looked up): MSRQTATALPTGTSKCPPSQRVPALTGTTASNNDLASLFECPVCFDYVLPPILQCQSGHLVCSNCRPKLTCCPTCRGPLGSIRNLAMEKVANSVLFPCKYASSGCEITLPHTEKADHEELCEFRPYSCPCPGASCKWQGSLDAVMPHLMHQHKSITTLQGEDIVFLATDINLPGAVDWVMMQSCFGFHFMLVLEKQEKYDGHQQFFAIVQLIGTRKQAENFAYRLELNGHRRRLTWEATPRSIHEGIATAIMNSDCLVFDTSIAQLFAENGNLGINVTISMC

B1: human Siah1 without the RING domain (residues 91-282) (domain or fragment)
chain: MANSVLFPCKYASSGCEITLPHTEKADHEELCEFRPYSCPCPGASCKWQGSLDAVMPHLMHQHKSITTLQGEDIVFLATDINLPGAVDWVMMQSCFGFHFMLVLEKQEKYDGHQQFFAIVQLIGTRKQAENFAYRLELNGHRRRLTWEATPRSIHEGIATAIMNSDCLVFDTSIAQLFAENGNLGINVTISMC
notes: additional methionine at the N-terminus, a cloning artifact (seen in chain A of the 1.95 A structure); also called seven-in-absentia homologue 1; truncated Siah1; source: E. coli, purified as described previously (Rimsa et al., 2013)
stoichiometry N [1]: 2

stoichiometry N [2]: 1
B2: full-length human SIP (Siah-interacting protein) (natural protein, UniProt Q9HB71 1-228, looked up)
chain: MASEELQKDLEEVKVLLEKATRKRVRDALTAEKSKIETEIKNKMQQKSQKKAELLDNEKPAAVVAPITTGYTVKISNYGWDQSDKFVKIYITLTGVHQVPTENVQVHFTERSFDLLVKNLNGKSYSMIVNNLLKPISVEGSSKKVKTDTVLILCRKKVENTRWDYLTQVEKECKEKEKPSYDTETDPSEGLMNVLKKIYEDGDDDMKRTINKAWVESREKQAKGDTEF
